Data on two molecules can be found in patent publication US20170121382A1 (published 2017).

Usually Kd stands for a measure of binding affinity in units of concentration.

Common to all, as to assay: SPR
Assay [1] concerns the target T1, human recombinant DMP1 (human, UniProt Q13316 17-513).
T1 chain: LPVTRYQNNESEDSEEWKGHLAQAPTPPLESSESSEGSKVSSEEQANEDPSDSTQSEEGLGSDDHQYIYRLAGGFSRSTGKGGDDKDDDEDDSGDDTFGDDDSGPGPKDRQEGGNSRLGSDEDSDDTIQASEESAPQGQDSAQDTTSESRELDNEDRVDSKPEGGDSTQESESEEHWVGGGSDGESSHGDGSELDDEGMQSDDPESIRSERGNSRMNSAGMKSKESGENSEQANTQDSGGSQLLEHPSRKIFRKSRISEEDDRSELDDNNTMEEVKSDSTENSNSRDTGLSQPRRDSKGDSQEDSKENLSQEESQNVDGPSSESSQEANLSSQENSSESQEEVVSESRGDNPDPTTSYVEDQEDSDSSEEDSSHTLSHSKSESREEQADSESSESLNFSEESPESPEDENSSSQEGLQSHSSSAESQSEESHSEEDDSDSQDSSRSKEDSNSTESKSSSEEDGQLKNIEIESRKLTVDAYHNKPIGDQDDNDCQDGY

For assay [2], the target named is T1, human recombinant DMP1.
A further assay deals with ASARM peptide.

Read-outs that look alike come from different tables or passages of the source.

B1: soluble human recombinant PHEX (enzyme)
chain: SLQAKQEYCLKPECIEAAAAILSKVNLSVDPCDNFFRFACDGWISNNPIPEDMPSYGVYPWLRHNVDLKLKELLEKSISRRRDTEAIQKAKILYSSCMNEKAIEKADAKPLLHILRHSPFRWPVLESNIGPEGVWSERKFSLLQTLATFRGQYSNSVFIRLYVSPDDKASNEHILKLDQATLSLAVREDYLDNSTEAKSYRDALYKFMVDTAVLLGANSSRAEHDMKSVLRLEIKIAEIMIPHENRTSEAMYNKMNISELSAMIPQFDWLGYIKKVIDTRLYPHLKDISPSENVVVRVPQYFKDLFRILGSERKKTIANYLVWRMVYSRIPNLSRRFQYRWLEFSRVIQGTTTLLPQWDKCVNFIESALPYVVGKMFVDVYFQEDKKEMMEELVEGVRWAFIDMLEKENEWMDAGTKRKAKEKARAVLAKVGYPEFIMNDTHVNEDLKAIKFSEADYFGNVLQTRKYLAQSDFFWLRKAVPKTEWFTNPTTVNAFYSASTNQIRFPAGELQKPFFWGTEYPRSLSYGAIGVIVGHEFTHGFDNNGRKYDKNGNLDPWWSTESEEKFKEKTKCMINQYSNYYWKKAGLNVKGKRTLGENIADNGGLREAFRAYRKWINDRRQGLEEPLLPGITFTNNQLFFLSYAHVRCNSYRPEAAREQVQIGAHSPPQFRVNGAISNFEEFQKAFNCPPNSTMNRGMDSCRLW
For B1, the Kd with human recombinant DMP1 [1] and with human recombinant DMP1 [2] was 248 nM each time.

B2: PHEX (enzyme)
chain: SLQAKQEYCLKPECIEAAAAILSKVNLSVDPCDNFFRFACDGWISNNPIPEDMPSYGVYPWLRHNVDLKLKELLEKSISRRRDTEAIQKAKILYSSCMNEKAIEKADAKPLLHILRHSPFRWPVLESNIGPEGVWSERKFSLLQTLATFRGQYSNSVFIRLYVSPDDKASNEHILKLDQATLSLAVREDYLDNSTEAKSYRDALYKFMVDTAVLLGANSSRAEHDMKSVLRLEIKIAEIMIPHENRTSEAMYNKMNISELSAMIPQFDWLGYIKKVIDTRLYPHLKDISPSENVVVRVPQYFKDLFRILGSERKKTIANYLVWRMVYSRIPNLSRRFQYRWLEFSRVIQGTTTLLPQWDKCVNFIESALPYVVGKMFVDVYFQEDKKEMMEELVEGVRWAFIDMLEKENEWMDAGTKRKAKEKARAVLAKVGYPEFIMNDTHVNEDLKAIKFSEADYFGNVLQTRKYLAQSDFFWLRKAVPKTEWFTNPTTVNAFYSASTNQIRFPAGELQKPFFWGTEYPRSLSYGAIGVIVGHEFTHGFDNNGRKYDKNGNLDPWWSTESEEKFKEKTKCMINQYSNYYWKKAGLNVKGKRTLGENIADNGGLREAFRAYRKWINDRRQGLEEPLLPGITFTNNQLFFLSYAHVRCNSYRPEAAREQVQIGAHSPPQFRVNGAISNFEEFQKAFNCPPNSTMNRGMDSCRLW
As to B2, the Kd with ASARM peptide was 176 nM.
